Test results as given in article PMC7515910, “Functional genetic encoding of sulfotyrosine in mammalian cells” (Nature Communications, 2020).

Target: the molecule itself
Test: crystal structure; sTyrRS (a.a. 1-322, 9 mg/mL) with 2 mM sulfotyrosine; sitting drop vapor diffusion at 15 °C; ammonium sulfate (2.2 M), PEG 400 (2.5-3%), HEPES (0.1 M, pH 7.5); 1.78 Å

B1: evolved sTyrRS amino acid activation domain (a.a. 1-322) (enzyme, E. coli, UniProt P0AGJ9 1-322, looked up)
chain: MASSNLIKQLQERGLVAQVTDEEALAERLAQGPIALYCGFDPTADSLHLGHLVPLLCLKRFQQAGHKPVAVVGGATGLIGDPSFKAAERKLNTEETVQEWVDKIRKQVAPFLDFDCGENSAIAANNYDFFGNMNVLTFLRDIGKHFSVNQMINKEAVKQRLNREDQGISFTEFSYNLLQGYGFACLNKQYGVVLQIGGSDQWGNITSGIDLTRRLHQNQVFGLTVPLITKADGTKFGKTEGGAVWLDPKKTSPYKFYQFWINTADADVYRFLKFFTFMSIEEINALEEEDKNSGKAPRAQYVLAEQVTRLVHGEEGLQAAKR
notes: Y37 unchanged; Crystallised in complex with the small molecule sulfotyrosine (2 mM); also called sTyrRS (1-322); sTyrRS1-322; source: E. coli BL21(DE3), purified (Ni resin, Ulp1 cleavage, Superdex 200 gel filtration); not shown: 6xHis, N-terminal, cleaved; SUMO, N-terminal, cleaved
B1 was tested, and the “stoichiometry N” value was 2.
